Experimental data as given in article PMC8126939, “The TBC1D31/praja2 complex controls primary ciliogenesis through PKA‐directed OFD1 ubiquitylation” (The EMBO Journal, 2021).

T1: GST-praja2_(550–610) (human, UniProt O43164 550-610, fluorescent dye on primary amines (NHS-ester labelling))
T1 construct: praja2 (PJA2), human, residues 550-610; The results call P1-P3 synthetic peptides; the methods describe recombinant GST fusions; also called P2; source: recombinant, purified (GST Trap, Superdex 75 gel filtration)
T1 sequence (looked up): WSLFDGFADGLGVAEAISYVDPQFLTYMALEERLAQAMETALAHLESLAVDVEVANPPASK

T2: GST-praja2_(530–570) (human, UniProt O43164 530-570, fluorescent dye on primary amines (NHS-ester labelling))
T2 construct: praja2 (PJA2), human, residues 530-570; The results call P1-P3 synthetic peptides; the methods describe recombinant GST fusions; also called P1; source: recombinant, purified (GST Trap, Superdex 75 gel filtration)
T2 chain (looked up): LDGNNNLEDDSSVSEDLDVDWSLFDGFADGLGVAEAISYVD

T3: GST-praja2_(530–570) (human, UniProt O43164 530-570, fluorescent dye on primary amines (NHS-ester labelling))
T3 chain: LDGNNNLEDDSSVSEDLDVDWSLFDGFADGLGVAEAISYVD


Columns and labels:
GST-praja2_(550–610) = target: T1, GST-praja2_(550–610); experiment: MST; Monolith NT 115; GST-praja2 fragments labelled with NHS-ester dye, TBC1D31 peptides titrated (16-point 1:1 dilution); 25°C, 20 mM NaP, 200 mM NaCl, 1 mM DTT, 0.05% Tween-20, pH 7.4; conditions: both partners purified
GST-praja2_(530–570) [1] = target: T2, GST-praja2_(530–570); experiment: as above; conditions: both partners purified
GST-praja2_(530–570) [2] = target: T3, GST-praja2_(530–570); experiment: MST

Row | Binder | Kd (GST-praja2_(550–610)) [µM] | Kd (GST-praja2_(530–570) [1]) [µM] | Kd (GST-praja2_(530–570) [2]) [µM] | binding result (GST-praja2_(530–570) [1])
1 | WDTTGQNLIKKVRNLRQRLTARARHRCQTPHLLAA (TBC1D31, human, C-terminus segment; also called WA35 TBC1D31; wild-type TBC1D31 peptide; source: synthetic peptide (bought: Shanghai Apeptide Co., Ltd)) [peptide of the C-terminus segment of TBC1D31] | 80 | 37 | – | –
2 | WDTTGQNLIKKVANLAQRLTARARHRCQTPHLLAA (TBC1D31, human, C-terminus segment peptide with R948A and R951A; also called TBC1D31AA; R948A-R951A; source: synthetic peptide (bought: Shanghai Apeptide Co., Ltd)) [double AA mutant TBC1D31 peptide] | – | – | ~65 | binds
